Measured values published in article PMC11476177.

T1: His-TonEBP sNT (UniProt O94916 1-548)
T1 sequence: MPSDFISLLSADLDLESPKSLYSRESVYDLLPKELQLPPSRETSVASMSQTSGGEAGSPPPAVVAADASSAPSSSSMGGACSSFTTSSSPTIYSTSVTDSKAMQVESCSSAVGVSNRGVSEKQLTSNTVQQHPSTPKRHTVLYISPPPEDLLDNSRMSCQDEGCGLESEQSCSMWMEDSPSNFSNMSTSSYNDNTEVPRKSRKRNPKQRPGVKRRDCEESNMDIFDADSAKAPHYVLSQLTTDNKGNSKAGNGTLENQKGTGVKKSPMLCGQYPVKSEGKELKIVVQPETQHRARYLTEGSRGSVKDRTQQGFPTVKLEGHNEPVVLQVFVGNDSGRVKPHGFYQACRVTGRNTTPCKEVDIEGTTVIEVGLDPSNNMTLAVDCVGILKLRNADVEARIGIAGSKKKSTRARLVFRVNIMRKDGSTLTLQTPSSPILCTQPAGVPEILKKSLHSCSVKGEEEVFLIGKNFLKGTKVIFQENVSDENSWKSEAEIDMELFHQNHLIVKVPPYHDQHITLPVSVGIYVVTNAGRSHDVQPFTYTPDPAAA

B1: Probe p65 (dsDNA)
DNA 1: AATGTAAGTGGGAAATTCCTCTGAATA
DNA 2: TATTCAGAGGAATTTCCCACTTACATT
B2: Probe IRF3/p65 (dsDNA)
DNA 1: ATAGGAAAACTGAAAGGGAGAAGTGAAAGTGGGAAATTCC
DNA 2: GGAATTTCCCACTTTCACTTCTCCCTTTCAGTTTTCCTAT

Columns and labels:
His-p65 = His-p65 (UniProt Q04206); assay: SPR; conditions: SPR: 10 mM HEPES, 150 mM NaCl, 3 mM EDTA, 0.05% P20, pH not stated, room temp, EMSA: 10 mM Tris-HCl pH 7.5, 10 mM NaCl, 40 mM KCl, 1 mM MgCl2, 1 mM EDTA
His-TonEBP sNT = biological target: T1, His-TonEBP sNT; assay: SPR; SPR: 10 mM HEPES, 150 mM NaCl, 3 mM EDTA, 0.05% P20, pH not stated, room temp; EMSA: 10 mM Tris-HCl pH 7.5, 10 mM NaCl, 40 mM KCl, 1 mM MgCl2, 1 mM EDTA, 1 mM DTT, 50 ug/mL BSA, 100 nM probe, 25 min room temp, 0.8% agarose; conditions: protein: recombinant; tags: N-terminal His; chain copies: 2; label: biotin (SPR), 5' end of strand 1 as printed; text says dsDNA, only one strand given

His-p65, sequence (Q04206 whole entry): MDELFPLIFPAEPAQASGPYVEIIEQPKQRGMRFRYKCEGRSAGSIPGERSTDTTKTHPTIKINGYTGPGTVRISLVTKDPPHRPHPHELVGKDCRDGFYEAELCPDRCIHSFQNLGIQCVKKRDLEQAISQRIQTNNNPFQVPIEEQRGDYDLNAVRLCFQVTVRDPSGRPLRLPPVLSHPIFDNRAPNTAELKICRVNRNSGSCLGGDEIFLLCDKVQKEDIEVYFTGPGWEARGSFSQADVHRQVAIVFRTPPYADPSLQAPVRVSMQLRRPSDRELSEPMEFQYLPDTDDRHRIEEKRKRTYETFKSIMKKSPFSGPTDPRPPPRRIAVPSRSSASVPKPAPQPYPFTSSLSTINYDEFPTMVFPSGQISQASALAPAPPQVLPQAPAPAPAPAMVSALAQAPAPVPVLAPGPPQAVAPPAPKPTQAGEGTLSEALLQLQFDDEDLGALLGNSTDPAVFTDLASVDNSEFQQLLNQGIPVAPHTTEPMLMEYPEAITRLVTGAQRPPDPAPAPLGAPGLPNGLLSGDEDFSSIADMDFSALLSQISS

Molecule	Kd (His-p65)	Kd (His-TonEBP sNT)
ATAGGAAAACTGAAAGGGAGAAGTGAAAGTGGGAAATTCC (double strand) [Probe IRF3/p65]	11.5 nM	–
AATGTAAGTGGGAAATTCCTCTGAATA (double strand) [Probe p65]	35.2 nM	–
B1	–	84.7 nM
B2	–	31.3 nM
